Blank lines part the entries; values can stand above or below the binder they belong to.
What was measured:
Experiment in all cases: holdup assay
Set-up in all cases: key: below the threshold = too weak to quantify, mostly under pKd 3.1 to 4
Conditions in all cases: plain residues with an end cap or a label only (N-terminal biotin on a linker: ado-ado)
SCRIB_2, Q14160 = target: SCRIB_2, Q14160
CARD11, Q9BXL7 = target: T1, CARD11, Q9BXL7
T1 sequence (Q9BXL7 662-765, limits assumed, looked up): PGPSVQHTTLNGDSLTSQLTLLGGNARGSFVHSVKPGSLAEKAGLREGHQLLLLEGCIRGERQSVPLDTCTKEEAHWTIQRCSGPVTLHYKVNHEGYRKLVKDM

Inadl_10, Q8NI35 = target: Inadl_10, Q8NI35
DLG4_3, P78352 = target: DLG4_3, P78352
IL16_3, Q14005 = target: IL16_3, Q14005
SCRIB_3, Q14160 = target: SCRIB_3, Q14160
Inadl_5, Q8NI35 = target: Inadl_5, Q8NI35
LNX2_2, Q8N448 = target: T2, LNX2_2, Q8N448
T2 sequence (Q8N448 334-432, limits assumed, looked up): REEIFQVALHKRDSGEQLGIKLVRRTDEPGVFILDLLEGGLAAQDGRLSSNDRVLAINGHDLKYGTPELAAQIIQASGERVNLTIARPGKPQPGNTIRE

PCLO, Q9Y6V0 = target: T3, PCLO, Q9Y6V0
T3 sequence (Q9Y6V0 4491-4600, limits assumed, looked up): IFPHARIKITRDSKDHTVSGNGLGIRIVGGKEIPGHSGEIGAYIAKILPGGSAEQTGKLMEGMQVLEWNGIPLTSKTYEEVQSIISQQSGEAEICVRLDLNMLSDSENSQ

DLG5_1, Q8TDM6 = target: DLG5_1, Q8TDM6
PICK1, Q9NRD5 = target: PICK1, Q9NRD5
TJP2_1, Q9UDY2 = target: TJP2_1, Q9UDY2
HTRA3, P83110 = target: T4, HTRA3, P83110
T4 sequence (P83110 354-453, limits assumed, looked up): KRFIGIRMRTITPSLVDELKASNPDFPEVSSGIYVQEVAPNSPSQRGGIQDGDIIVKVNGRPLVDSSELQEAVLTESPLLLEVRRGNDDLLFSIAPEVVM

GRIP2_5, Q9C0E4 = target: GRIP2_5, Q9C0E4
LIN7B, Q9HAP6 = target: T5, LIN7B, Q9HAP6
T5 sequence (Q9HAP6 88-185, limits assumed, looked up): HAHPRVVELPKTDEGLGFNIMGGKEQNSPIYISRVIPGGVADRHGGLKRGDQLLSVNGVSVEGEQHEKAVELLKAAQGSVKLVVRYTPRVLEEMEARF

MAGI2_4, Q86UL8 = target: MAGI2_4, Q86UL8
GRIP2_7, Q9C0E4 = target: GRIP2_7, Q9C0E4
NHERF3_1, Q5T2W1 = target: T6, NHERF3_1, Q5T2W1
T6 sequence (Q5T2W1 4-100, limits assumed, looked up): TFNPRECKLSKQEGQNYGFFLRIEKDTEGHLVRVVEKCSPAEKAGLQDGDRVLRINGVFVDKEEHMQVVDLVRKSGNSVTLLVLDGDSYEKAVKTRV

LDB3, O75112 = target: LDB3, O75112
GRID2IP_2, A4D2P6 = target: GRID2IP_2, A4D2P6
NHERF3_3, Q5T2W1 = target: T7, NHERF3_3, Q5T2W1
T7 sequence (Q5T2W1 238-333, limits assumed, looked up): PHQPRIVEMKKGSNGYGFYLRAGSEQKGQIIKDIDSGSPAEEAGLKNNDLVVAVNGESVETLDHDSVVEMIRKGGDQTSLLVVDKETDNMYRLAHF

NHERF4_1, Q86UT5-2 = target: NHERF4_1, Q86UT5-2
SNTG1, Q9NSN8 = target: T8, SNTG1, Q9NSN8
T8 sequence (Q9NSN8 52-150, limits assumed, looked up): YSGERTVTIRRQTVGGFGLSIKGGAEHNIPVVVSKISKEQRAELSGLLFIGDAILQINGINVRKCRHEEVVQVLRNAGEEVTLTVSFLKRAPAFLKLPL

GOPC, Q9HD26 = target: GOPC, Q9HD26
SNX27, Q96L92 = target: SNX27, Q96L92
LRRC7, Q96NW7 = target: T9, LRRC7, Q96NW7
T9 sequence (Q96NW7 1440-1537, limits assumed, looked up): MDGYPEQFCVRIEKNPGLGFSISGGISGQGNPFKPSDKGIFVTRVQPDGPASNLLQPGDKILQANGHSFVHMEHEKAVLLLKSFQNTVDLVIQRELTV

NHERF4_2, Q86UT5 = target: NHERF4_2, Q86UT5
LAP2, Q96RT1 = target: LAP2, Q96RT1
Chain of LAP2, Q96RT1 (Q96RT1 other isoform, or with tags, fused parts or gaps): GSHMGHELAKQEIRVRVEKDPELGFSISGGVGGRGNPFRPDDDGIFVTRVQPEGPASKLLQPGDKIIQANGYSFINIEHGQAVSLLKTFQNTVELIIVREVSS

Chain of NHERF4_1, Q86UT5-2 (Q86UT5 other isoform, or with tags, fused parts or gaps): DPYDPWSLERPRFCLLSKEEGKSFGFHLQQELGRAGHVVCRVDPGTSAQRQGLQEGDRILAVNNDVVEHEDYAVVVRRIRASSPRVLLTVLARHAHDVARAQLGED
Chain of Inadl_10, Q8NI35 (Q8NI35 1673-1763): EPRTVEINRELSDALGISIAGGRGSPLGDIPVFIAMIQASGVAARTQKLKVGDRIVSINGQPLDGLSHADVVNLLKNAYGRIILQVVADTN
Chain of IL16_3, Q14005 (Q14005 1107-1207): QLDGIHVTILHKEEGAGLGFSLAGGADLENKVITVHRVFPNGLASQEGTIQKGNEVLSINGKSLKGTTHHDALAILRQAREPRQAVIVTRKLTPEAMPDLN
Chain of DLG5_1, Q8TDM6 (Q8TDM6 617-713): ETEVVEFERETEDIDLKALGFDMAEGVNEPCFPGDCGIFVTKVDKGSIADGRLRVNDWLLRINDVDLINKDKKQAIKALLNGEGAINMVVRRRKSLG
Chain of Inadl_5, Q8NI35 (Q8NI35 673-780): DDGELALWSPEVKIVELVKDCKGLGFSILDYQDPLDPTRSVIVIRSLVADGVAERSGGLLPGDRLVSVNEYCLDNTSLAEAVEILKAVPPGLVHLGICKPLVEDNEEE
Chain of GRIP2_7, Q9C0E4 (Q9C0E4 934-1023): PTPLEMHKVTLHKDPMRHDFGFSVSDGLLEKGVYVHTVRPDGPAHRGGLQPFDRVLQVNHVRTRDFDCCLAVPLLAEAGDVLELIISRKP
Chain of TJP2_1, Q9UDY2 (Q9UDY2 24-128): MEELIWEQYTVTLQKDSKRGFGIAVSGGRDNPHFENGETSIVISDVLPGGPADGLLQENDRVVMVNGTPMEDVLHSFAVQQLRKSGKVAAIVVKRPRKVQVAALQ
Chain of NHERF4_2, Q86UT5 (Q86UT5 220-308): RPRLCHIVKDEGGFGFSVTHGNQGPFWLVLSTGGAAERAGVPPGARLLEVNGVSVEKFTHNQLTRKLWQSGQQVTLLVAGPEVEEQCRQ
Chain of GRIP2_5, Q9C0E4 (Q9C0E4 544-642): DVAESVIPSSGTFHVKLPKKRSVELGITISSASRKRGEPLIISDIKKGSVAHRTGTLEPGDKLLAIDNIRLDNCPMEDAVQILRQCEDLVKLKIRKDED
Chain of GRID2IP_2, A4D2P6 (A4D2P6 272-370): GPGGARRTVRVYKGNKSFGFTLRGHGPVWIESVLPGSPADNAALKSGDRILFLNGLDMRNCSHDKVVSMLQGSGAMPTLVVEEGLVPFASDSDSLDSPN
Chain of SCRIB_2, Q14160 (Q14160 857-960): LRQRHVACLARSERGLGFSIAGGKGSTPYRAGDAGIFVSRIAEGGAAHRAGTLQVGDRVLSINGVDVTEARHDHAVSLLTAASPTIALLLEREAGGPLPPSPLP
Chain of PICK1, Q9NRD5 (Q9NRD5 17-115): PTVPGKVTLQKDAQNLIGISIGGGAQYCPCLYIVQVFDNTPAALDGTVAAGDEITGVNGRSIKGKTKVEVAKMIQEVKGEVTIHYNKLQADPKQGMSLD
Chain of MAGI2_4, Q86UL8 (Q86UL8 772-865): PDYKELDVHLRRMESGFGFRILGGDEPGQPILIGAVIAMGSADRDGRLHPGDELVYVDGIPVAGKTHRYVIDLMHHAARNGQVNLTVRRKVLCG
Chain of DLG4_3, P78352 (P78352 306-403): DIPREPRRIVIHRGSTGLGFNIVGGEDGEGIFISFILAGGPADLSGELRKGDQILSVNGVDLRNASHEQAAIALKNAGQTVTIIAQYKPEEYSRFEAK
Chain of LDB3, O75112 (O75112 1-94): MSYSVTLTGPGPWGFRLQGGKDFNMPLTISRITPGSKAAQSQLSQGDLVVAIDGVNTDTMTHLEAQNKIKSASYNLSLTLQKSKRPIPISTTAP
Chain of SCRIB_3, Q14160 (Q14160 999-1103): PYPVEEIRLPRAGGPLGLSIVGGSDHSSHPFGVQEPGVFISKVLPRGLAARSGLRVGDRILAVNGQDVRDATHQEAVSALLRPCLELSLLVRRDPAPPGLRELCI

pKd (SCRIB_2, Q14160): below the threshold
pKd (CARD11, Q9BXL7): below the threshold
pKd (Inadl_10, Q8NI35): below the threshold
pKd (DLG4_3, P78352): below the threshold
pKd (IL16_3, Q14005): 3.59
pKd (SCRIB_3, Q14160): 4.24
pKd (Inadl_5, Q8NI35): below the threshold
pKd (LNX2_2, Q8N448): 3.76
pKd (PCLO, Q9Y6V0): below the threshold
pKd (DLG5_1, Q8TDM6): below the threshold
pKd (PICK1, Q9NRD5): 3.8
pKd (TJP2_1, Q9UDY2): below the threshold
pKd (HTRA3, P83110): 4.04
pKd (GRIP2_5, Q9C0E4): below the threshold
pKd (LIN7B, Q9HAP6): below the threshold
pKd (MAGI2_4, Q86UL8): below the threshold
pKd (GRIP2_7, Q9C0E4): below the threshold
pKd (NHERF3_1, Q5T2W1): below the threshold
pKd (LDB3, O75112): 3.72
pKd (GRID2IP_2, A4D2P6): 3.69
pKd (NHERF3_3, Q5T2W1): 3.87
pKd (NHERF4_1, Q86UT5-2): 3.69
pKd (SNTG1, Q9NSN8): 3.48
pKd (GOPC, Q9HD26): below the threshold
pKd (SNX27, Q96L92): 4.57
pKd (LRRC7, Q96NW7): below the threshold
pKd (NHERF4_2, Q86UT5): below the threshold
pKd (LAP2, Q96RT1): below the threshold
B1: TRIP6, Q15654 (peptide)
chain: ELSATVTTDC

pKd (SCRIB_2, Q14160): below the threshold
pKd (CARD11, Q9BXL7): below the threshold
pKd (Inadl_10, Q8NI35): below the threshold
pKd (DLG4_3, P78352): below the threshold
pKd (IL16_3, Q14005): below the threshold
pKd (SCRIB_3, Q14160): below the threshold
pKd (Inadl_5, Q8NI35): below the threshold
pKd (LNX2_2, Q8N448): below the threshold
pKd (PCLO, Q9Y6V0): below the threshold
pKd (DLG5_1, Q8TDM6): below the threshold
pKd (PICK1, Q9NRD5): 3.98
pKd (TJP2_1, Q9UDY2): below the threshold
pKd (HTRA3, P83110): below the threshold
pKd (GRIP2_5, Q9C0E4): below the threshold
pKd (LIN7B, Q9HAP6): below the threshold
pKd (MAGI2_4, Q86UL8): below the threshold
pKd (GRIP2_7, Q9C0E4): below the threshold
pKd (NHERF3_1, Q5T2W1): below the threshold
pKd (LDB3, O75112): below the threshold
pKd (GRID2IP_2, A4D2P6): below the threshold
pKd (NHERF3_3, Q5T2W1): below the threshold
pKd (NHERF4_1, Q86UT5-2): below the threshold
pKd (SNTG1, Q9NSN8): below the threshold
pKd (GOPC, Q9HD26): below the threshold
pKd (SNX27, Q96L92): below the threshold
pKd (LRRC7, Q96NW7): below the threshold
pKd (NHERF4_2, Q86UT5): below the threshold
pKd (LAP2, Q96RT1): below the threshold
B2: AQP3, Q92482 (peptide)
chain: LAHVKHKEQI
